For one experiment, the target named is T1, huBTN2A1 (human, UniProt Q7KYR7 29-248, limits assumed).
T1 construct: Sourced antigen; construct not described; also called Human BTN2A1
T1 sequence (looked up): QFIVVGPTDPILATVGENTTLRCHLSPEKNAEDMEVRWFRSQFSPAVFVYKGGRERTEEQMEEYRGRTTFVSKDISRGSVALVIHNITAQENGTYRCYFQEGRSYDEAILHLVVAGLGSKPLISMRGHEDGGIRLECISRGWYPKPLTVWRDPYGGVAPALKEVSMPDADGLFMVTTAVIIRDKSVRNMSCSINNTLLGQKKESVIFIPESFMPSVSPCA
Briefly: ELISA.

Another experiment has as its target T2, huBTNL3 (human, UniProt Q6UXE8 18-237, limits assumed).
T2 construct: Sourced antigen; construct not described; also called Human BTNL3
T2 sequence (looked up): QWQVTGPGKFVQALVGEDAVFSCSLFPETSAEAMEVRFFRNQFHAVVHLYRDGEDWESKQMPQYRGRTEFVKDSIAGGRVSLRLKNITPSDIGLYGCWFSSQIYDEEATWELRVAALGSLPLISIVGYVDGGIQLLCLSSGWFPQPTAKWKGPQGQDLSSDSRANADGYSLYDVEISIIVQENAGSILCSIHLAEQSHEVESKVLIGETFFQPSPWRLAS
Briefly: ELISA.

For a further experiment, the target named is T3, human B7-H4 on cells (human, UniProt Q7Z7D3 25-282).
T3 sequence: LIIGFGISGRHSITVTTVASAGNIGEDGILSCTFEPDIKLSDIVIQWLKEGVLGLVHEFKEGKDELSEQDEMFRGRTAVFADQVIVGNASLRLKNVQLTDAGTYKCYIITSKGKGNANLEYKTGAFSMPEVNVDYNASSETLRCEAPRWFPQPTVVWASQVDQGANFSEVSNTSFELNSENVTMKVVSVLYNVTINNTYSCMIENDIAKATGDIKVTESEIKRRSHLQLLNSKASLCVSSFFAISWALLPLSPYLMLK
Briefly: cell-based or functional assay.

Experiment [1] concerns the target T4, Human B7-H4-Fc (Human B7H4 ECD, Fc_6His) (human).
T4 construct: also called FcHis6 tagged human B7-H4
T4 sequence (Q7Z7D3 whole entry, looked up): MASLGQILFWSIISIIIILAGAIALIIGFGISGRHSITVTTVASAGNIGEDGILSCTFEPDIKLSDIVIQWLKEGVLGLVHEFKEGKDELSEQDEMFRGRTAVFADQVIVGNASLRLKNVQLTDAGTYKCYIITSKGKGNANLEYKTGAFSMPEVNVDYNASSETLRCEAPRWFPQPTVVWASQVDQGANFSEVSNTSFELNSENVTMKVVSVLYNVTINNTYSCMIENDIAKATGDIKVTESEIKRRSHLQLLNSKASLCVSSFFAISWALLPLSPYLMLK
As to the kind of experiment: HTRF binding, human IgG1-TM. Background: In TR-FRET formats the signal depends on donor and acceptor labels being close together.

In experiment [2] the target is T5, Cyno B7-H4-Fc (Cyno B7H4 ECD, FcTM_6His) (cynomolgus monkey).
T5 construct: extracellular domain; also called cynomolgus B7-H4-Fc
Briefly: HTRF binding, human IgG1-TM.

For experiment [3], the target named is T6, Murine B7-H4-Fc (Mouse B7H4 ECD, Fc_6His) (mouse, UniProt Q7TSP5 25-257).
T6 construct: extracellular domain; also called mouse B7-H4-Fc; FcHis6 tagged murine B7-H4
T6 sequence (Q7TSP5 whole entry, looked up): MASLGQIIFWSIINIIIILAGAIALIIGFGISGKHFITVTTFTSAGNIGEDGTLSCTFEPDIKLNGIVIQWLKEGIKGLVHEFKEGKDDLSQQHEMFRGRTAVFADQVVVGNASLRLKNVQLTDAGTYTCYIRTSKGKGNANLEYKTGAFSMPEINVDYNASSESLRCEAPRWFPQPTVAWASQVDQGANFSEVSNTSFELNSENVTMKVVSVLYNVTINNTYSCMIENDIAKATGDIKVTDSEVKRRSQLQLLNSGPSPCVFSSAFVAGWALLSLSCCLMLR
Briefly: HTRF binding, human IgG1-TM.

The target of experiment [4] is T7, Human B7-H4 ECD-Flag-His10 (monomeric) (human, UniProt Q7Z7D3 25-259).
T7 construct: Minimally biotinylated for KinExA; also called hB7H4-ECD-Flag-His10; B7-H4-FLAG
T7 sequence: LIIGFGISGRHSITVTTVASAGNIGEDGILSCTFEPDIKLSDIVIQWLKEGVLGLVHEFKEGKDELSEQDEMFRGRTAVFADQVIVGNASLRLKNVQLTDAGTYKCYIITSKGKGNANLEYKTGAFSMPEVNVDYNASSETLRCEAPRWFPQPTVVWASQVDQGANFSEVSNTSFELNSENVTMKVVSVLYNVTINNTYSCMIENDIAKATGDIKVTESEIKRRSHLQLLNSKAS
As to the kind of experiment: Octet BLI, hIgG1-TM on Protein G (n = 4-7). On the technique in general: Biolayer interferometry detects binding as a change in optical thickness at a sensor tip.

The target of experiment [5] is T8, Murine B7-H4 ECD-Flag-His10 (monomeric) (mouse, UniProt Q7TSP5 25-257).
T8 construct: extracellular domain; also called FlagHis10 murine B7-H4
T8 sequence (looked up): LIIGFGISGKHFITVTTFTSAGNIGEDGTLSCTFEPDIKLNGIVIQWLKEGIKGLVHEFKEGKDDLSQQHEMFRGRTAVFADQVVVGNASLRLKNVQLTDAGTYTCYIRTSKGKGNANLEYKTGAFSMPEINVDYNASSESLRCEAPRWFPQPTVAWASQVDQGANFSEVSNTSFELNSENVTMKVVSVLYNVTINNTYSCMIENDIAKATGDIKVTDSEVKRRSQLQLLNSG
As to the kind of experiment: Octet BLI, hIgG1-TM on Protein G (n = 4-7).

Experiment [6] has as its target T8, Murine B7-H4 ECD-Flag-His10 (monomeric). As to the kind of experiment: Octet; summary table, repeats Table 9 (hIgG1-TM).
Experiment [7] concerns the target T7, Human B7-H4 ECD-Flag-His10 (monomeric). As to the kind of experiment: Octet; summary table, rounded from Table 9 (hIgG1-TM).
Experiment [8] has as its target T9, Human B7H4 ECD (SV), splice variant, 10His_FLAG (human).
T9 construct: also called B7-H4-SV
Briefly: Octet BLI, hIgG1-TM on Protein G (n = 4-7).

The target in experiment [9] is T9, Human B7H4 ECD (SV), splice variant, …. As to the kind of experiment: Octet; summary table, repeats Table 9 (hIgG1-TM).

B1: ZY0EP0-C07 human IgG1-TM (antibody, V domains shown)
VH: QVQLVESGGVLVKPGGSLRLSCAASGFTLSDYYMSWIRQAPGMGLEWVSYISSSGSTIYYTDSVKGRFTISRDSAKNSLYLQMNSLRAEDTAVYYCARDGVGFDYWGQGTLVTVSS
VL: EIVLTQSPGTLSLFPGERATLSCRASQSVSSSYLAWYQQKPGQSPRLLIYAASSRATGIPDRFSGSGSGTDFTLTISRLEPEDFAVYYCQQYGSSPLYTFGQGTKLEIK
notes: also called ZY0EPO-C07
By EC50 is commonly meant the concentration at which the effect is half-maximal. Low values mean an effect from little substance, high ones a need for much substance. Usually Kd stands for the constant that tells how readily two partners part at equilibrium. For orientation: koff means the first-order rate constant of dissociation. A higher koff goes with fast dissociation. A word on the kon: it is a measure of how fast the partners come together. Low values mean slower complex formation, high ones faster complex formation. As for B1, in the experiment with huBTN2A1, the binding result was “no binding”. Also, the binding result with huBTNL3 was “no binding”. In the experiment with human B7-H4 on cells, the “ZAP % Viability, OVCAR4” value amounted to 57%; the “ZAP % Viability, SKBR3” value is 72%; the “ZAP IC50 (M), OVCAR4” value was 1e-08 M; the “ZAP IC50 (M), SKBR3” value came out at 4e-09 M. Moreover, in [1], the EC50 is 0.31 nM and the Max was determined as 1210. Also, in experiment [2], it took 0.39 nM to reach a half-maximal effect (EC50) and the Max was 890. Further, in [3], the EC50 was found to be 0.2 nM and the Max was 1250. In experiment [4], this molecule yielded a dissociation constant (Kd) of 9.4 nM, a koff of 0.000397 s⁻¹ and an on-rate constant (kon) of 41600 M⁻¹ s⁻¹. For the same molecule, in [5], the equilibrium dissociation constant (Kd) worked out at 11 nM, the koff came to 0.000524 s⁻¹ and the kon was 43000 M⁻¹ s⁻¹. Also, binding in experiment [6] was characterised by a dissociation constant (Kd) of 11 nM. In addition, the Kd in [7] was 9 nM.

B2: ZY0EOB-F05 human IgG1-TM (antibody, V domains shown)
VH: QVQLQESGPGLVKPSQTLSLTCTVSDGSISSGGYYWSWIRQHPGKGLEWIGNIYYSGSTYYNPSLKSRVTISVDTSKNQFSLKLNSVTAADTAVYYCATEKALATVTPSGYENYYTVDVWGQGTTVTVSS
VL: DIQLTQSPSFLSASVGDRVTITCWASQGISSYLAWYQQKPGKAPKLLIYAASTLQSGVPSRFSGSGSGTEFTLTISSLQPEDFATYYCQHLNSYPLTFGGGTKVEIK
As to B2, the binding result with huBTN2A1 and with huBTNL3 was “no binding” in each case. For the same molecule, the “ZAP % Viability, OVCAR4” value with human B7-H4 on cells was determined as 67%. Moreover, the “ZAP % Viability, SKBR3” value with human B7-H4 on cells came out at 84%. Moreover, the concentration for a half-maximal effect (EC50) in experiment [1] came to 0.15 nM; in experiment [2] it was 0.15 nM; in experiment [3], 0.19 nM. For the same molecule, the results for the Max in experiment [1], in [2] and in experiment [3] were 1870, 1480 and 1340, respectively. Further, the equilibrium dissociation constant (Kd) in experiment [4] amounted to 13.4 nM; in experiment [5], 25 nM; in [8], 174 nM; in experiment [6], 25 nM; in [9], 174 nM; in experiment [7], 13 nM. For the same molecule, the off-rate constant (koff) in experiment [4] was 0.000355 s⁻¹; in experiment [5] it was 0.000476 s⁻¹; in experiment [8], 0.000584 s⁻¹. For the same molecule, the association rate constant (kon) was 26500 M⁻¹ s⁻¹ in [4], 18700 M⁻¹ s⁻¹ in [5] and 3350 M⁻¹ s⁻¹ in experiment [8].

B3: ZY0EQD-E02 human IgG1-TM (antibody, V domains shown)
VH: QVQLQQWGAGLLKPSETLSLTCAVYGGSFSGYYWNWIRQPPGKGLEWIGEINHSGSTSYNPSLKSRVTISVDTSKNQFSLKLSSVTAADTAVYYCARVLYNWNVDSWGQGTLVTVSS
VL: DIQMTQSPSSLSASVGDRVTITCRASQDIRNDVGWYQQKPGKAPKRLIYAASRLQSGVPSRFSGSGSGTEFTLTISSLQPEDFATYYCLQHNSYPRTFGQGTKVEIK
As to B3, the binding result with huBTN2A1 and in the experiment with huBTNL3 was “no binding” each time. Also, the “ZAP % Viability, OVCAR4” value in the experiment with human B7-H4 on cells is 40%. The “ZAP % Viability, SKBR3” value in the experiment with human B7-H4 on cells came to 48%. Moreover, the “ZAP IC50 (M), OVCAR4” value in the experiment with human B7-H4 on cells is 2e-08 M. For the same molecule, the “ZAP IC50 (M), SKBR3” value with human B7-H4 on cells stood at 1e-08 M. Also, the concentration for a half-maximal effect (EC50) in [1] turned out to be 0.33 nM; in experiment [2], 0.28 nM; in [3], 1.44 nM. Besides, the Max was 1270 in experiment [1], 1100 in experiment [2] and 224 in experiment [3]. For the same molecule, the Kd in [4] worked out at 14.4 nM; in [5], 621 nM; in [8] it was 801 nM; in experiment [6], 621 nM; in [9], 801 nM; in experiment [7], 14 nM. The koff in [4] was determined as 0.00278 s⁻¹; in experiment [5] it was 0.126 s⁻¹; in [8] it was 0.00269 s⁻¹. Moreover, the kon amounted to 193000 M⁻¹ s⁻¹ in experiment [4], 203000 M⁻¹ s⁻¹ in experiment [5] and 3360 M⁻¹ s⁻¹ in experiment [8].

B4: ZY0EPQ-E02 human IgG1-TM (antibody, V domains shown)
VH: QVQLQQWGAGLLKPSETLSLTCAVYGGSFSGYYWNWIRQPPGKGLEWIGEINHSGSTNYNPSLKSRVTILVDTSKNQFSLKLSSVTAADTAVYYCARNLYNWNLDSWGQGTLVTVSS
VL: DIQMTQSPSSLSASVGDRVTITCRASQGIRNDLGWYQQKPGRAPKRLIYVASSLQSGVPSRFSGSGSGTEFTLTISSLQPEDFATYYCLQHNSYPRTFGQGTKVEIK
Consider B4, for which the binding result with huBTN2A1 and with huBTNL3 was “no binding” throughout. The “ZAP % Viability, OVCAR4” value with human B7-H4 on cells is 46%. In the experiment with human B7-H4 on cells, the “ZAP % Viability, SKBR3” value stood at 65%. Besides, in the experiment with human B7-H4 on cells, the “ZAP IC50 (M), OVCAR4” value worked out at 2e-08 M. In the experiment with human B7-H4 on cells, the “ZAP IC50 (M), SKBR3” value is 4e-09 M. The results for the 50% effective concentration (EC50) in experiment [1], in [2] and in experiment [3] were 0.41 nM, 0.35 nM and 1.76 nM, respectively. In addition, the values for the Max in [1], in [2] and in experiment [3] were 1090, 934 and 256, respectively. The equilibrium dissociation constant (Kd) in experiment [4] is 25.7 nM; in [5], 396 nM; in experiment [8] it was 1660 nM; in experiment [6], 396 nM; in experiment [9], 1660 nM; in experiment [7] it was 26 nM. In addition, the off-rate (koff) amounted to 0.00182 s⁻¹ in experiment [4], 0.0304 s⁻¹ in experiment [5] and 0.00229 s⁻¹ in experiment [8]. For the same molecule, the association rate constant (kon) in [4] was 70900 M⁻¹ s⁻¹; in experiment [5], 76700 M⁻¹ s⁻¹; in experiment [8] it was 1380 M⁻¹ s⁻¹.

Source of the values: patent US20240239894A1 (AstraZeneca / MedImmune, published 2024).
